The results in this text go back to patent publication US20260144882A1 (BIO THERA SOLUTIONS, published 2026).

Numbering of substitutions follows the chain as printed.

B1: 10F4-1G7 scFv (scFv, V domains shown)
VH: EVQLVESGGGLVQPGGSLRLSCAASGYNFGDYDMSWVRQAPGKGLEWVSSIIGHGDTKFYADSVKGRFTISRDNSKNTLYLQMNSLRAEDTAVYYCAREYSDVVDYVSVRTPLDYWGQGTLVTVSS
VL: DIQMTQSPSSLSASVGDRVTITCRASQGISSYLAWYQQKPGKAPKLLIYAASSLQSGVPSRFSGSGSGTDFTLTISSLQPEDFATYYCQQHYTTPPTFGQGTKVEIKR
notes: phage clone supernatant
B2: 10F4-1E1 scFv (scFv, V domains shown)
VH: EVQLVESGGGLVQPGGSLRLSCAASGDIFGNYWMSWVRQAPGKGLEWVSSIDASSGNRFYADSVKGRFTISRDNSKNTLYLQMNSLRAEDTAVYYCAREYSDVVDYVSVRTPLDYWGQGTLVTVSS
VL: B1 VL
notes: phage clone supernatant
B3: 10F4-1F1 scFv (scFv, V domains shown)
VH: B2 VH with D27F, I28S, G30S, S50A, D52S, A53P, S54G, S55D, N57T, R58I
VL: B1 VL
notes: phage clone supernatant
B4: 10F4-1B9 scFv (scFv, V domains shown)
VH: EVQLVESGGGLVQPGGSLRLSCAASGFNFDNYYMSWVRQAPGKGLEWVSSIYQTDASIFYADSVKGRFTISRDNSKNTLYLQMNSLRAEDTAVYYCAREYSDVVDYVSVRTPLDYWGQGTLVTVSS
VL: B1 VL
notes: phage clone supernatant
B5: 10F4-2C2 scFv (scFv, V domains shown)
VH: B2 VH with D27F, I28N, G30S, S50V, S54H, G56A, R58I, F59R
VL: B1 VL
notes: phage clone supernatant
B6: 10F4-2B11 scFv (scFv, V domains shown)
VH: B2 VH with D27G, I28S, G30T, S50V, A53S, S54T, S55G, G56S
VL: B1 VL
notes: phage clone supernatant
B7: 10F4-1C7 scFv (scFv, V domains shown)
VH: B2 VH with I28S, G30D, S50A, A53T, S54H, G56D, R58S
VL: B1 VL
notes: phage clone supernatant
B8: 1G8-1C12 scFv (scFv, V domains shown)
VH: EVQLVESGGGLVQPGGSLRLSCAASGGSFYGFGMSWVRQAPGKGLEWVSGIYSHDADKRYADSVKGRFTISRDNSKNTLYLQMNSLRAEDTAVYYCARQTEDRSYGYDLDYWGQGTLVTVSS
VL: B1 VL
notes: phage clone supernatant
B9: 10F4-3 scFv (scFv, V domains shown)
VH: EVQLVESGGGLVQPGGSLRLSCAASGFSFGDFAMSWVRQAPGKGLEWVSVIDGHTAYNSYADSVKGRFTISRDNSKNTLYLQMNSLRAEDTAVYYCAREYSDVVDYVSVRTPLDYWGQGTLVTVSS
VL: B1 VL
notes: phage clone supernatant
B10: 10F4-2E1 scFv (scFv, V domains shown)
VH: EVQLVESGGGLVQPGGSLRLSCAASGFTFTTYDMSWVRQAPGKGLEWVSGIKYSKYYTHYADSVKGRFTISRDNSKNTLYLQMNSLRAEDTAVYYCAREYSDVVDYVSVRTPLDYWGQGTLVTVSS
VL: B1 VL
notes: phage clone supernatant
B11: 10F4-2E4 scFv (scFv, V domains shown)
VH: EVQLVESGGGLVQPGGSLRLSCAASGYTFDSYWMSWVRQAPGKGLEWVSAIDGTDSVAYYADSVKGRFTISRDNSKNTLYLQMNSLRAEDTAVYYCAREYSDVVDYVSVRTPLDYWGQGTLVTVSS
VL: B1 VL
notes: phage clone supernatant
B12: 10F4-2A1 scFv (scFv, V domains shown)
VH: B1 VH with N28T, G30D, S50G, I52K, G53A, G55S, T57N, F59R
VL: B1 VL
notes: phage clone supernatant
B13: 10F4-1H7 scFv (scFv, V domains shown)
VH: B10 VH with F27Y, T28S, T30D, Y53Q, S54Y, Y56G, H59S
VL: B1 VL
notes: phage clone supernatant
B14: 10F4-2G2 scFv (scFv, V domains shown)
VH: B1 VH with G30T, G53A, H54S, D56S, T57G, K58N, F59Y
VL: B1 VL
notes: phage clone supernatant
B15: 10F4-5 scFv (scFv, V domains shown)
VH: B1 VH with Y27F, N28I, G30D, D31G, S50V, I52K, G53D, D56G, T57Y
VL: B1 VL
notes: phage clone supernatant
B16: 10F4-2C6 scFv (scFv, V domains shown)
VH: B10 VH with T28N, T30G, T31G, Y32F, Y53Q, S54Y, Y56G, H59S
VL: B1 VL
notes: phage clone supernatant
B17: 10F4-1G8 scFv (scFv, V domains shown)
VH: B9 VH with S28N, G30S, A33D, D52K, G53P, H54S, T55G, A56D, N58I, S59N
VL: B1 VL
notes: phage clone supernatant
B18: 10F4-1H1 scFv (scFv, V domains shown)
VH: B10 VH with F27Y, T28S, T30G, T31N, Y32F, Y53Q, S54Y, Y56G, H59S
VL: B1 VL
notes: phage clone supernatant
B19: 10F4-2E8 scFv (scFv, V domains shown)
VH: B1 VH with Y27F, D31N, G53P, T57Y, K58S
VL: B1 VL
notes: phage clone supernatant
B20: 10F4-2F11 scFv (scFv, V domains shown)
VH: B10 VH with F27Y, T28N, T31S, Y53T, S54G, K55G, Y56G, Y57S, T58A, H59R
VL: B1 VL
notes: phage clone supernatant
B21: 10F4-1H6 scFv (scFv, V domains shown)
VH: B10 VH with T28N, T30Y, T31D, Y53T, S54H, K55S, Y56G, Y57G, T58N, H59G
VL: B1 VL
notes: phage clone supernatant
B22: 10F4-1H4 scFv (scFv, V domains shown)
VH: B11 VH with Y27F, T28N, D30T, S31N, D52S, D55G, S56G, V57Y, A58T
VL: B1 VL
notes: phage clone supernatant
B23: 10F4-2C4 scFv (scFv, V domains shown)
VH: B2 VH with D27Y, I28S, N31D, S50V, A53S, S54G, R58K, F59R
VL: B1 VL
notes: phage clone supernatant
B24: 10F4-2E6 scFv (scFv, V domains shown)
VH: B9 VH with F32Y, A33W, V50A, G53Q, H54G, T55K, Y57T, N58S, S59F
VL: B1 VL
notes: phage clone supernatant
B25: 10F4-2H5 scFv (scFv, V domains shown)
VH: B2 VH with D27Y, G30T, A53Q, S54G, R58I
VL: B1 VL
notes: phage clone supernatant
B26: 10F4-2C12 scFv (scFv, V domains shown)
VH: B9 VH with F27Y, S28N, F32Y, A33S, G53T, H54T, T55S, N58T, S59R
VL: B1 VL
notes: phage clone supernatant
B27: 10F4-2A5 scFv (scFv, V domains shown)
VH: B10 VH with F27Y, T28S, T31D, Y53T, S54Y, Y56S, Y57D, T58A, H59R
VL: B1 VL
notes: phage clone supernatant
B28: 10F4-1H11 scFv (scFv, V domains shown)
VH: EVQLVESGGGLVQPGGSLRLSCAASGYTFTGFWMSWVRQAPGKGLEWVSSISPDSGTKHYADSVKGRFTISRDNSKNTLYLQMNSLRAEDTAVYYCAREYSDVVDYVSVRTPLDYWGQGTLVTVSS
VL: B1 VL
notes: phage clone supernatant
B29: antibody 1F3-1E4 (antibody, human IgG1, kappa, V domains shown)
VH: EVQLVESGGGLVQPGGSLRLSCAASGFSFGTYGMSWVRQAPGKGLEWVSRISGDSANIRYADSVKGRFTISRDNSKNTLYLQMNSLRAEDTAVYYCARAELLAFDVYTASDYWGQGTLVTVSS
VL: B1 VL

One assay addresses T1, human Nectin-4 extracellular antigen hNectin-4-His (human, UniProt Q96NY8 32-349).
T1 construct: C-terminal 8xHis tag included
T1 sequence: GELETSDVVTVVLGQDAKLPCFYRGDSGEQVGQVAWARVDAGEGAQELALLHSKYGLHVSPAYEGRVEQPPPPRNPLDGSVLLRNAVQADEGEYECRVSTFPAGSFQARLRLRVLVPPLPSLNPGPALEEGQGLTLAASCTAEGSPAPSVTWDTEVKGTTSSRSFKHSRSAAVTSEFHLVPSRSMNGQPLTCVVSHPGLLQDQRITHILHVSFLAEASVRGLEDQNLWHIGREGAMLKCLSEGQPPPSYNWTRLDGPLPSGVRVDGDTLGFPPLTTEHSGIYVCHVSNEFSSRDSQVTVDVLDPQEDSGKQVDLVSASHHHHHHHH
Nature of the assay: ELISA, phage scFv supernatant 1:50.
The molecule B1 gave an OD value of 1.54 OD.

As for B2, the OD value was 1.63 OD.

Consider B3, for which the OD value is 1.63 OD.

B4 returned an OD value of 1.5 OD.

Molecule B5 had an OD value of 1.58 OD.

As for B6, the OD value turned out to be 1.55 OD.

With B7, the OD value was determined as 1.57 OD.

Turning to B8, the OD value worked out at 1.42 OD.

In turn, B9 showed an OD value of 1.32 OD.

Regarding B10, the OD value worked out at 1.6 OD.

Take B11: the OD value was 1.43 OD.

B12 had an OD value of 1.76 OD.

Turning to B13, the OD value is 1.49 OD.

B14: the OD value amounted to 1.49 OD.

Molecule B15 yielded an OD value of 1.31 OD.

B16 showed an OD value of 1.52 OD.

Molecule B17 displayed an OD value of 1.52 OD.

B18 returned an OD value of 1.61 OD.

The molecule B19 yielded an OD value of 1.38 OD.

B20: the OD value came out at 1.46 OD.

Molecule B21 yielded an OD value of 1.48 OD.

Take B22: the OD value amounted to 1.38 OD.

The molecule B23 came in with an OD value of 1.53 OD.

Regarding B24, the OD value was 1.45 OD.

B25 registered an OD value of 1.44 OD.

The molecule B26 showed an OD value of 1.45 OD.

B27 gave an OD value of 1.59 OD.

B28 yielded an OD value of 1.56 OD.

The target of a further assay is T1, human Nectin-4 extracellular antigen …. Put plainly: SPR, antibody on Protein A chip, 1:1 fit. From the text: In this study, the affinity of the antibodies for the human Nectin-4 extracellular antigen was detected by surface plasmon resonance (SPR) technique (BIAcore: GE Healthcare, T200).
B29 registered a Kd of 0.426 nM, a koff of 0.000825 s⁻¹ and a kon of 1.94e+06 M⁻¹ s⁻¹.
